Key:
[1] = target: T1, ALDH7A1 (aldehyde dehydrogenase 7A1; antiquitin) (Homo sapiens, UniProt P49419, E427Q); test: X-ray crystal structure, […] Å, co-crystallisation; format: binding; conditions: 15 mM NAD+; pH 6.2; ADP portion ordered, NMN disordered
T1 sequence (P49419 29-539 E427Q): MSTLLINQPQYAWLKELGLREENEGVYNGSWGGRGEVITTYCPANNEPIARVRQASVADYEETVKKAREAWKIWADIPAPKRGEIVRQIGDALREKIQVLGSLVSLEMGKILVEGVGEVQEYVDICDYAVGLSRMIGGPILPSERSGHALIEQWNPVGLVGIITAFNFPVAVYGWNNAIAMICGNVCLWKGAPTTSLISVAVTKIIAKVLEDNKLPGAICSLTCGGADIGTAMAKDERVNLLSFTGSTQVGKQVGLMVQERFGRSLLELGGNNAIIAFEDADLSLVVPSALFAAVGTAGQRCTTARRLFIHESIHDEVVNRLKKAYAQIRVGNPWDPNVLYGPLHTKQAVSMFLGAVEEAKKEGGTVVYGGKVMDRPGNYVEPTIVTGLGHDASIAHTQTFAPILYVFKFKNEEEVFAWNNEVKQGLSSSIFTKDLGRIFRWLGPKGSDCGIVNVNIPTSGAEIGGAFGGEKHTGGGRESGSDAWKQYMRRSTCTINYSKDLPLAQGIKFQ

[2] = target: T2, ALDH7A1 (aldehyde dehydrogenase 7A1; antiquitin) (Homo sapiens, UniProt P49419, E427G); test: X-ray crystal structure, […] Å, co-crystallisation; format: binding; conditions: 5 mM NAD+; pH 6.5; NMN disordered
T2 sequence (P49419 29-539 E427G): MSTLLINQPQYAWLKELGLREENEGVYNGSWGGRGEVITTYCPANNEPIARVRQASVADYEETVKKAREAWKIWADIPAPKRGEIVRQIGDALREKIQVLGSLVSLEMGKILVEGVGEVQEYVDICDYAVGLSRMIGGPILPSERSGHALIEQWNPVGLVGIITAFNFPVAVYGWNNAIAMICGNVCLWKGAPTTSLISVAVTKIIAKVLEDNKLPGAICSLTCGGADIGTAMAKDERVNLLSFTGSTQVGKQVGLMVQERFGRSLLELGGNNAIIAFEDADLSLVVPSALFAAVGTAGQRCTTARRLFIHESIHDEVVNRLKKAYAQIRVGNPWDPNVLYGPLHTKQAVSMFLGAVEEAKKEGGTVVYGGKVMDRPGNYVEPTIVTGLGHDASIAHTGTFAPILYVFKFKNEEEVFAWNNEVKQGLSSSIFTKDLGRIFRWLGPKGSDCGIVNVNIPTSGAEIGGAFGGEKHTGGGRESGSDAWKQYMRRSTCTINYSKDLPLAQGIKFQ

SAXS = target: the molecule itself; test: SAXS
crystal structure = target: the molecule itself; test: crystal structure

Molecule	stoichiometry N (crystal structure)	also measured
NC(=O)c1ccc[n+]([C@@H]2O[C@H](COP(=O)(O)OP(=O)(O)OC[C@H]3O[C@@H](n4cnc5c(N)ncnc54)[C@H](O)[C@@H]3O)[C@@H](O)[C@H]2O)c1 [NAD^+]		X-ray crystal structure, 2.06 Å, co-crystallisation [1]: The crystal structure of E427Q complexed with NAD^+ was determined in space group C2; X-ray crystal structure, 2.15 Å, co-crystallisation [2]: the NMN of NAD^+ bound to E427G is disordered
wild-type ALDH7A1 (aldehyde dehydrogenase 7A1) (enzyme, human, UniProt P49419 27-539, looked up) AFMSTLLINQPQYAWLKELGLREENEGVYNGSWGGRGEVITTYCPANNEPIARVRQASVADYEETVKKAREAWKIWADIPAPKRGEIVRQIGDALREKIQVLGSLVSLEMGKILVEGVGEVQEYVDICDYAVGLSRMIGGPILPSERSGHALIEQWNPVGLVGIITAFNFPVAVYGWNNAIAMICGNVCLWKGAPTTSLISVAVTKIIAKVLEDNKLPGAICSLTCGGADIGTAMAKDERVNLLSFTGSTQVGKQVGLMVQERFGRSLLELGGNNAIIAFEDADLSLVVPSALFAAVGTAGQRCTTARRLFIHESIHDEVVNRLKKAYAQIRVGNPWDPNVLYGPLHTKQAVSMFLGAVEEAKKEGGTVVYGGKVMDRPGNYVEPTIVTGLGHDASIAHTETFAPILYVFKFKNEEEVFAWNNEVKQGLSSSIFTKDLGRIFRWLGPKGSDCGIVNVNIPTSGAEIGGAFGGEKHTGGGRESGSDAWKQYMRRSTCTINYSKDLPLAQGIKFQ		stoichiometry N (SAXS): 4
ALDH7A1 E427Q (Glu427Gln) (enzyme, human, UniProt P49419 27-539, looked up) AFMSTLLINQPQYAWLKELGLREENEGVYNGSWGGRGEVITTYCPANNEPIARVRQASVADYEETVKKAREAWKIWADIPAPKRGEIVRQIGDALREKIQVLGSLVSLEMGKILVEGVGEVQEYVDICDYAVGLSRMIGGPILPSERSGHALIEQWNPVGLVGIITAFNFPVAVYGWNNAIAMICGNVCLWKGAPTTSLISVAVTKIIAKVLEDNKLPGAICSLTCGGADIGTAMAKDERVNLLSFTGSTQVGKQVGLMVQERFGRSLLELGGNNAIIAFEDADLSLVVPSALFAAVGTAGQRCTTARRLFIHESIHDEVVNRLKKAYAQIRVGNPWDPNVLYGPLHTKQAVSMFLGAVEEAKKEGGTVVYGGKVMDRPGNYVEPTIVTGLGHDASIAHTQTFAPILYVFKFKNEEEVFAWNNEVKQGLSSSIFTKDLGRIFRWLGPKGSDCGIVNVNIPTSGAEIGGAFGGEKHTGGGRESGSDAWKQYMRRSTCTINYSKDLPLAQGIKFQ	4	
ALDH7A1 E427D (Glu427Asp) (enzyme, human, UniProt P49419 27-539, looked up) AFMSTLLINQPQYAWLKELGLREENEGVYNGSWGGRGEVITTYCPANNEPIARVRQASVADYEETVKKAREAWKIWADIPAPKRGEIVRQIGDALREKIQVLGSLVSLEMGKILVEGVGEVQEYVDICDYAVGLSRMIGGPILPSERSGHALIEQWNPVGLVGIITAFNFPVAVYGWNNAIAMICGNVCLWKGAPTTSLISVAVTKIIAKVLEDNKLPGAICSLTCGGADIGTAMAKDERVNLLSFTGSTQVGKQVGLMVQERFGRSLLELGGNNAIIAFEDADLSLVVPSALFAAVGTAGQRCTTARRLFIHESIHDEVVNRLKKAYAQIRVGNPWDPNVLYGPLHTKQAVSMFLGAVEEAKKEGGTVVYGGKVMDRPGNYVEPTIVTGLGHDASIAHTDTFAPILYVFKFKNEEEVFAWNNEVKQGLSSSIFTKDLGRIFRWLGPKGSDCGIVNVNIPTSGAEIGGAFGGEKHTGGGRESGSDAWKQYMRRSTCTINYSKDLPLAQGIKFQ	4	
ALDH7A1 E427G (Glu427Gly) (enzyme, human, UniProt P49419 27-539, looked up) AFMSTLLINQPQYAWLKELGLREENEGVYNGSWGGRGEVITTYCPANNEPIARVRQASVADYEETVKKAREAWKIWADIPAPKRGEIVRQIGDALREKIQVLGSLVSLEMGKILVEGVGEVQEYVDICDYAVGLSRMIGGPILPSERSGHALIEQWNPVGLVGIITAFNFPVAVYGWNNAIAMICGNVCLWKGAPTTSLISVAVTKIIAKVLEDNKLPGAICSLTCGGADIGTAMAKDERVNLLSFTGSTQVGKQVGLMVQERFGRSLLELGGNNAIIAFEDADLSLVVPSALFAAVGTAGQRCTTARRLFIHESIHDEVVNRLKKAYAQIRVGNPWDPNVLYGPLHTKQAVSMFLGAVEEAKKEGGTVVYGGKVMDRPGNYVEPTIVTGLGHDASIAHTGTFAPILYVFKFKNEEEVFAWNNEVKQGLSSSIFTKDLGRIFRWLGPKGSDCGIVNVNIPTSGAEIGGAFGGEKHTGGGRESGSDAWKQYMRRSTCTINYSKDLPLAQGIKFQ	4	
